What was measured:
human MTHFR [1] = biological target: T1, human MTHFR (Homo sapiens, UniProt P42898, A222V); experiment: Cell-free MTHFR enzyme activity assay in crude yeast extract; type: biochemical; design: expressed in transfected cells; conditions: cells grown at 50 ug/ml folinic acid
human MTHFR [2] = biological target: T1, human MTHFR; experiment: In vivo yeast complementation growth assay: MTHFR alleles in fol3 met13 haploid yeast, growth without methionine with titrated folinic acid; type: cell-based; design: expressed in transfected cells; host or cells: Saccharomyces cerevisiae fol3Δ::KanMX met13Δ::KanMX (S288c background), GAL1 promoter; conditions: 50 p g/ml folate supplementation

## A222V: common functionally impaired human MTHFR variant, catalytic domain substitution A222V
Human MTHFR [1]
  Drop in enzyme activity in cell-free assays: 50%
Human MTHFR [2]
  Reduction in growth rate: 50%

From patent US20120277180A1, “Cofactors and Methods for Use for Individuals” (VITAPATH GENETICS, INC, priority 2009, published 2012)
